# Test results from US20160280792A1 (Kyowa Kirin, published 2016).
# T1: soluble form of human IL-3Rα protein (extracellular region with C-terminal FLAG tag) (human, UniProt P26951 19-305)
# T1 construct: Made in CHOras1 cells, purified on anti-FLAG gel; also called soluble form of IL-3Rα protein; soluble form of human IL-3Rα extracellular region
# T1 sequence: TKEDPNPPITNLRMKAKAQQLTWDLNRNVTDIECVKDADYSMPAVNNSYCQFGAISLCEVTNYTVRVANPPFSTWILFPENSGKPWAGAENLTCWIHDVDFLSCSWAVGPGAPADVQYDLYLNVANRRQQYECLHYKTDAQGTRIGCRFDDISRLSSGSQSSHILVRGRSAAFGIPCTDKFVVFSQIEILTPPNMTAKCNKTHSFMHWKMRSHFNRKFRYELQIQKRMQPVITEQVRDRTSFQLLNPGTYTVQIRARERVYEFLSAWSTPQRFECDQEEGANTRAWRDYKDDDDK
# T2: IL-3Rα/GM-CSFRα chimeric protein, region 4 (97-…-104) of IL-3Rα replaced by GM-CSFRα sequence, on HEK293T … (human, UniProt P26951 19-378)
# T2 construct: also called Region 4 (A-B)
# T2 chain: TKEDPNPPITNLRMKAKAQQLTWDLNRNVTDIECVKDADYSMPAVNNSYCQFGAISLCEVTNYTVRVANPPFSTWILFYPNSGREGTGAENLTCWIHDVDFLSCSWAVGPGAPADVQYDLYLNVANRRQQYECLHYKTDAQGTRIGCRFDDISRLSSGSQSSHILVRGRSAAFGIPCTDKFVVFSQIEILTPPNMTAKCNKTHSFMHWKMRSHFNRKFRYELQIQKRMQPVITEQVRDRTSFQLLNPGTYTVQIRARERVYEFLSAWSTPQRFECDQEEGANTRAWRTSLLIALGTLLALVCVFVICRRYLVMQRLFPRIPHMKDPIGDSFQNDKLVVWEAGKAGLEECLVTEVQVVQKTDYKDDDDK
# Assays:
# [1] = molecular target: T1, soluble form of human IL-3Rα protein …; assay: SPR (Biacore 2000): antibody captured on anti-human antibody CM5 chip, soluble IL-3Rα as analyte, 1:1 Langmuir fit
# Protocol: Specifically, CM5 (research grade) was used for a sensor tip (each GE). Firstly, the CM5 tip was activated by applying an equivalent mixture of 400 mM EDC (N-ethyl-N′-(3-dimethylaminopropyl)carbodiimidehydrochloride) and 100 mM NHS (N-hydroxysuccinimide) to the CM5 tip. Next, an antibody to the human antibody attached to the Human Antibody Capture Kit (GE) (hereinafter, referred to as anti-human antibody antibody) was diluted with the solution attached to the kit and applied thereto, thereby immobilizing the required amount of the anti-human antibody antibody to the CM5 tip. Regarding the mouse antibody to be used as a control, an antibody to the mouse antibody attached to the Mouse Antibody Capture Kit (GE) (hereinafter, referred to as anti-mouse antibody antibody) was diluted with the solution attached to the kit and applied thereto, thereby immobilizing a necessary amount thereof to the CM5 tip. Next, the surface of the activated tip was blocked and inactivated by applying 1 M of ethanolamine dihydrochloride thereto. By the above steps until this, preparation of a CM5 sensor tip which can measure the dissociation constant KD was completed.
# Next, each of anti-IL-3Rα antibodies, was diluted to give a concentration of 5 μg/ml with HBS-FP buffer (GE) one kind per one flow cell and applied, thereby allowing it to bind to the immobilized anti-human antibody antibody or anti-mouse antibody antibody. Next, the soluble form of IL-3Rα protein was applied thereto. In order to dissociate the bound anti-IL-3Rα antibody and soluble form of IL-3Rα protein, 3 M MgCl₂ attached to Human Antibody Capture Kit or pH 1.7 of Glycine-HCl attached to Mouse Antibody Capture Kit was applied in the amount attached to the kit. The steps until this were regarded as one step. By repeating the same steps using two or more concentrations of the soluble form of IL-3Rα protein, data for calculating association and dissociation constants (sensorgram) were obtained.
# In the analysis, Biaevaluation software (GE) was used and Biaevaluation Software Handbook was referred. Specifically, by carrying out simultaneous analysis of kinetics analysis, employing basically the 1:1 Langmuir binding reaction model and fitting, association rate constant (Ka) and dissociation rate constant (Kd) were calculated, and the value of dissociation constant KD was calculated by the calculation of Kd/Ka.
# [2] = molecular target: T2, IL-3Rα/GM-CSFRα chimeric protein, …; assay: flow cytometry, labelled antibody at 1 µg/ml, HEK293T cells expressing the construct
binder,measurement,setting,value
"Old19 anti-human IL-3Rα human antibody (antibody, human IgG1, V domains shown, Human antibody; recombinant form in N5KG1-Val Lark vector (human IgG1, kappa)) VH: QVQLVQSGAEVKKPGSSVKVSCKASGGTFSSYAISWVRQAPGQGLEWVGGIIPIFGTANYAQKFQGRVTITADESTSTAYMELSSLRSEDTAVYYCARGHKYGPYYFDYWGQGTLVTVSS VL: DIQMTQSPSSLSASVGDRVTITCRASQGISSWLAWYQQKPEKAPKSLIYAASSLQSGVPSRFSGSGSGTDFTLTISSLQPEDFATYYCQQYNSYPRTFGQGTKVEIK",Kd,[1],3.24 nM
same,binding result,[2],no binding (tested: 1 µg/ml)
